Reference: paper PMC5773547

Biological target: His-tagged recombinant CHIKV nsP2-NT (1-454) (Chikungunya virus strain S 27)

With “His-tagged recombinant CHIKV nsP1-WT (1-535) (from UniProt Q8JUX6 1-535) (enzyme)” the ATPase activity of nsP2-NT (0.2 μg) with nsP1-WT (0.6 μg) against nsP2-NT alone, TLC assay with [γ-P32] ATP, release of free Pi was 1.5 fold and the ATPase activity of nsP2-NT (1 μg) with nsP1-WT (1 μg), colorimetric malachite green assay, Pi release (approximately 86 μM for nsP2-NT alone) was 174 µM.
